Experiment [1] addresses human Izumo1, immobilized AVEXIS bait, Q8IYV9. Nature of the experiment: AVEXIS. The note with it: chain shown with the change;; parent: est. 0.16; read off a plot.
In experiment [2] the target is T1, mouse Izumo1, immobilized AVEXIS bait, Q9D9J7.
T1 chain: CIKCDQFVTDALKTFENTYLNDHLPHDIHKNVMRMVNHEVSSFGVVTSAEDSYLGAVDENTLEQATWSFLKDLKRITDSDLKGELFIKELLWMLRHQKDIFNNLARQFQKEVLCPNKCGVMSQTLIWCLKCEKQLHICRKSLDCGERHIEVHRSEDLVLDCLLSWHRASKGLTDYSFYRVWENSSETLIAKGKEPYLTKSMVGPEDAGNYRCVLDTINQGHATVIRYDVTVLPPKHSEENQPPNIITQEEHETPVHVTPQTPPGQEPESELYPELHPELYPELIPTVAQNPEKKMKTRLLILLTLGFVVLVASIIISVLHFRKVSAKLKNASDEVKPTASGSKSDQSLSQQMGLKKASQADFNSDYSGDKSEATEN
Nature of the experiment: AVEXIS. To be noted: chain shown with the change;; parent: est. 0.51; read off a plot.

Sequence of human Izumo1, immobilized AVEXIS bait, Q8IYV9 (Q8IYV9 22-350): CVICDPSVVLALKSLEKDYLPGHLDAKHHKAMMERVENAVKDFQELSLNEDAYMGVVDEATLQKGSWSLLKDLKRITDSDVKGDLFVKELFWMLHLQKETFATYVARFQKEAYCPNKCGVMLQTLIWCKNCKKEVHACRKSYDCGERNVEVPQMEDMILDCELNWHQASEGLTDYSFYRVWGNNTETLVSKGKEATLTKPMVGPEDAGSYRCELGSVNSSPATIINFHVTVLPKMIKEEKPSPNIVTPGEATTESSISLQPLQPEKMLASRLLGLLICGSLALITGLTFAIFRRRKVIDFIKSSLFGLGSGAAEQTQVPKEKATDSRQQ

B1: mouse Juno, wild type, AVEXIS prey, Q9EQF4 N185S (protein)
chain: GDKLLSVCMNSKRHKQEPGPEDELYQECRPWEDNACCTRSTSWEAHLEEPLLFNFSMMHCGLLTPACRKHFIQAICFHECSPNLGPWIQPVVPNGQEEQRVWGVPLCQEDCEDWWRACHSSLTCKSNWLHGWDWSEEKKHCPAHEPCLPFSYHFPTPDDLCEKIWSNTFKASPERRNSGRCLQKWFEPTLSNPNVEVALHFAG
B1: the response in experiment [1] was 0.17 A 485 nm; in experiment [2], 0.5 A 485 nm.

The values above are taken from PMC4751342.
